Changes are numbered by the printed parent chain.
B1: 74 (protein)
chain: MTTRTRILTAFLSLLAANACAADAAPAAPHTVVLRAARMFDGASGKLVDHPQLTIVGNKIVRIAQGDKAEVPAGAEVVDLGDATLLPGFIDAHVHLSGQSSDNWYGDFFDNMMRFPAEQALYGAYYARITLEAGFTSVRDVGSTDWVALGLRNAIDAGKVPGPRMLVSNYLVGSTGGHADQDPIPPHKLPLAGPLQGVCNGPEECRAAVRYQIKYGANVIKFMPSGGVLSLSDPVDAPELSQDEMNAVIGESHAWGRKVAAHAHGDKAAKMAVAAGVDSIEHGSFIEDDTLRAMKAKNVYLVPTISAIAHVEEKIGTFPPVIAEKGRAAAAHLRQTFRHAVQIGVPIALGTDAGVGAHGSNAREFRYMVENGLTPAQALLAGTANAARLLGTFDRVGTLEAGKLADVVAVPGNPIADITVTERPLFVMKDGVVVRRDAVR
modifications: exemplary polypeptide
B2: 79 (protein)
chain: B1 chain with L171A, A307G, V355T
modifications: exemplary polypeptide
B3: 75 (protein)
chain: B1 chain with L171A, H178Q
modifications: exemplary polypeptide
B4: 78 (protein)
chain: B1 chain with L171A, A307G, V311T
modifications: exemplary polypeptide
B5: 30 (protein)
chain: MELAIRNGIVFNGKEVIGKTNIYVREGKIVEVSREDHSAKMEIDAKDMFVMPGLIDAHIHLSGIKGGSLLKIMFEKPEYRVLRAAKWLEKLLLAGFTTVRDCGETVSLALKRAVNDGIIDGPKVIAAGKPITQTFGHGELSHDVPLEFSKTMSFSEFCDGMESCIHAARKVLRDGADFIKIFATGGVLSQRDTPEHPQLSYEEIRAIVNEAEKVNSYVAAHAHGDRGARIAIEAGVKTLEHGTLLKDETLKLMKEKNVTLTPTLTIQELIFKYGKQIGVDEWGLQKITSVRESIANVVRKAKEYGVTIISGTDLGFETGLEEIEMGKNWMETVLLVERGGLSPIEALRASTYNAAMAIGINAGVIEIGKDADIIIINGDPTQNVREISKITHVIKNGKLTVENKSIKG
modifications: exemplary polypeptide
B6: 32 (protein)
chain: B5 chain with G27E, V32I, V114L, T193R, S216T, S293N, E324D, Q382L
modifications: exemplary polypeptide
B7: 34 (protein)
chain: B5 chain with V16I, V114L, D120G, T193R, S216T, S293N, E324D, Q382L
modifications: exemplary polypeptide
B8: 31 (protein)
chain: B5 chain with I119V
modifications: exemplary polypeptide
B9: 33 (protein)
chain: B5 chain with V16I, R83S, V114L, D120G, T193R, S216T, S293N, E324D, Q382L, I394V
modifications: exemplary polypeptide

Experiment: Thermostability assay: residual OTA detoxification activity after 10 min incubation at 45-99° C. (T50)
Assay type: physicochemical
Conditions: 0.1 mg/mL protein in 20 mM Tris-HCl pH 7.5, residual OTA detoxification activity relative to 4° C. reference aliquot
Protocol: Stability was determined in terms of thermostability. Notwithstanding, a person having skill in the art is aware that stability towards high temperature (e.g. more than 30° C.) often correlates with stability towards other non-standard conditions such as stability towards acidic or basic pH (e.g. below pH 6.5 or above pH 7.5, respectively), towards elevated salt concentrations, organic solvents or drying.
To determine the kinetic stability of the produced enzymes, thermostability assays were performed. To this end, purified protein samples were diluted to a protein concentration of 0.1 mg/mL in 20 mM Tris-HCl buffer pH 7.5 and aliquots were incubated in a thermocycler for 10 min at either 45, 55, 65, 75, 80, 85, 90, 95 or 99° C. After this incubation, the aliquots were stored at 4° C. until further analysis. A reference aliquot was stored at 4° C. throughout the incubation. Subsequently, all aliquots were assayed for residual OTA detoxification activity using the assay described in Example 3. Residual enzyme activities were calculated relative to the reference aliquot. The temperature range in which 50% of the initial activity was lost after the incubation (T50), in relation to the reference aliquot was determined.

Molecule	T50 (temperature at which 50% of the initial activity was maintained)
B1	<63.2 °C
B2	70.7-72.6 °C
B3	74.4-77.0 °C
B4	68.8-70.7 °C
B5	>95 °C
B6	>95 °C
B7	>95 °C
B8	>95 °C
B9	>95 °C
